For the experiment, the target named is Thermoanaerobacter italicus TagA^FL∗ (residues M1-R244, I203E/L209Q/L212K/I216E), solubility-enhanced TagA (Thermoanaerobacter italicus). Nature of the experiment: AUC.

Here are results for 1 substance from PMC8784642.

As usually defined, the Kd is the equilibrium constant for the complex coming apart. One may read the stoichiometry N as a count of units in the complex or per binding partner. For the substance “Thermoanaerobacter italicus TagA^FL∗ (residues M1-R244, I203E/L209Q/L212K/I216E), solubility-enhanced TagA (enzyme)”, the Kd came to 210 µM and the stoichiometry N was found to be 2.
